In patent US12258605B2, “Alkane oxidation by modified hydroxylases” (The California Institute of Technology, priority 2005, dated 2025):

Assay: Halomethane reactions (formaldehyde, PFBHA, GC-ECD): iodomethane
Assay type: biochemical
Conditions: formaldehyde formation
Procedure: Halomethane reactions: Reactions with chloromethane, bromomethane, and iodomethane were carried out in 1 mL-scale using halomethane-saturated buffer (100 mM phosphate pH 8.0) and 50-500 nM purified protein. 900 μL buffer were added with protein, incubated for 15 seconds, and then added with 100 μL NADPH regeneration solution (100 units/mL IDH, 70 mg/mL isocitrate, 1.5 mg/ml NADP+). Solution were sealed and stirred for 30 minutes at 25° C. To reduce background levels of formaldehyde to a minimum, buffers were prepared using HPLC-grade water and autoclaved twice prior to use. Formaldehyde concentration in the reaction solutions was determined through derivatization with o-(2,3,4,5,6-pentafluorobenzyl)hydroxylamine hydrochloride (PFBHA) and gas chromatography. […] Organic phase was removed, diluted 1/100 v/v, and analyzed on a Shimadzu GC-17A gas chromatograph. […] Quantification was carried out using a calibration curve and solutions at known concentration of formaldehyde. […]
Along with activity on propane, P450PMO also hydroxylates ethane (TTN˜2,500), despite ethane's higher C—H bond energy (101.0 kcal mol^−1 versus 98.6 kcal mol^−1 for propane). […] Reactions with purified P450 variants and the halomethanes were analyzed for formaldehyde formation (FIG. 42). […] Activity on chloromethane was detected at lower levels (0.5-1% of propane activity) and in fewer P450 variants. […]

B1: P450PMO: P450 BM-3 variant, SEQ ID NO:125; 7-7 plus G443A and D698G; propane monooxygenase (protein)
chain: TIKEMPQPKTFGELKNLPLLNTDKPVQALMKIADELGEIFKFEAPGCVTRYISSQRLIKEACDESRFDKNLSQELKFFRDFGGDGLFTSWTHEINWKKAHNILLPSFSQQAMKGYHAMMVDIAVQLVQKWERLNADEHIEVSEDMTRLTLDTIGLCGFNYRFNSFYRDQPHPFIISMVRALDEVMNKPQRANPDDPAYDENKRQCQEDIKVMNDLVDKIIADRKARGEQSDDLLTQMLNGKDPETGEPLDDGNISYQIITFLIAGHETTSGLLSFALYFLVKNPHVLQKVVEEAARVLVDPVPSYKQVKQLKYVGMVLNEALRLWPTFPAFSLYAKEDTVLGGEYPLEKGDEVMVLIPQLHRDKTVWGDDVEEFRPERFENPSAIPQHAFKPFGNGQRACIGQQFALHEATLVLGMMLKHFDFEDHTNYELDIKETLTLKPEAFVVKAKSKKIPLGGIPSPSTGQSAKKVRKKAENAHNTPLLVLYGSNMGTAEGTARDLADIAMSKGFAPQVATLDSHAGNLPREGAVLIVTASYNGHPPDNAKQFVDWLDQASADEVKGVRYSVFGCGDKNWATTYQKVPAFIDETLAAKGAENIADRGEADASDDFEGTYEEWREHMWSDVAAYFNLDIENSEDNKSTLSLQFVDSAADMPLAKMHGAFSTNVVASKELQQPGSARSTRHLEIELPKEASYQEGGHLGVIPRNYEGTVNRVTARFGLDASQQIRLEAEEEKLAHLPLAKTVSVEELLQYVELQDPVTRTQLRAMAAKTVCPPHKVELEALLEKQAYKEQVLAKRLTMLELLEKYPACEMKFSEFIALLPSIRPRYYSISSSPRVDEKQASITVSVVSGEAWSGYGEYKGIASNYLAELQEGDTITCFISTPQSEFTLPKDPETPLIMVGPGTGVAPFRGFVQARKQLKEQGQSLGEAHLYFGCRSPHEDYLYQEELENAQSEGIITLHTAFSRMPNQPKTYVQHVMEQDGKKLIELLDQGAHFYICGDGSQMAPAVEATLMKSYADVHQVSEADARLWLQQLEEKGRYAKDVWAG
modifications: Mutant P450PMO protein sequence
notes: 7-7 plus G443A and D698G; propane monooxygenase
- iodomethane dehalogenase activity: could be detected
